In patent publication US20220064301A1 (XILIO DEVELOPMENT, published 2022):
Like-named read-outs stand apart in the source and are kept apart here. One block for each binder: values may come before it.

Tests used:
[1] = molecular target: T1, FcγRIIIa on Jurkat effector cells (FcγRIIIa reporter bioassay); assay: cell-based or functional assay
[2] = molecular target: T2, human CTLA4-Fc (R&D #7268-CT) (human, UniProt P16410 36-162); assay: huCTLA4-Fc binding ELISA (luminescence)
T2 construct: Bought reagent coated on ELISA plates; also called human CTLA-Fc; not shown: Fc part of the bought fusion; not described
Description: All ELISA were performed in a manner substantially similar to the description below or generally consistent with methods known in the art. Polystyrene 96-well microplates (Fisher #07-200-591) were coated with 1 μg/mL of human CTLA4-Fc (R&D #7268-CT) per well and stored overnight at 4° C. Plates were washed with 0.05% Tween in TBS (TBS-T), blocked with 1% BSA (Sigma Aldrich #B4287-25G), and washed with TBS-T. Serial dilutions of samples containing anti-CTLA4 antibodies described below were made in assay buffer (PBS+0.05% Tween+1% BSA), added to plate, and shaken orbitally at 100 RPM at room temperature for one hour. After washing with TBS-T, anti-human Kappa light chain [clone: SB81a]-HRP (Abcam #ab79115) diluted to 1:8000 in assay buffer was applied to the wells and shaken at room temperature for one hour. Plates were washed with TBS-T, HRP substrate (Super Signal Pico Chemiluminescent Substrate, Thermo #37069) was applied to plate, and luminescence was recorded using a spectrophotometer (BioTek). Data was analyzed with GraphPad Prism.

[3] = molecular target: T1, FcγRIIIa on Jurkat effector cells …; assay: cell-based or functional assay; remark: listed apart in the source
human CTLA4 (huCTLA4) [4] = molecular target: T3, human CTLA4 (huCTLA4) (human, UniProt P16410 36-161, limits assumed); assay: SPR, Biacore T200, 37 C
Description: (§1) All Surface Plasmon Resonance (SPR) analysis were performed in a manner substantially similar to the description below or generally consistent with methods known in the art. SPR was performed on certain antibodies to assess binding between the antibody, or fragment thereof, and a target protein, such as human CTLA4 (huCTLA4), cynomolgus CTLA4 (cynoCTLA4), or FcγRIIIa (CD16a). […] SPR analysis was performed on a GE Biacore T200 instrument at 37° C. The antibody and isotype control (reference channel) were coupled at 100 RU immobilization level to CM5 chip (GE Healthcare). Peptides were synthesized and diluted into HBS-EP+ running buffer (GE Healthcare). The binding data were analyzed using Biacore Evaluation Software, version 3.0.

[5] = molecular target: cynomolgus CTLA4 (cynoCTLA4) (cynomolgus, UniProt G7PL88 36-161); assay: SPR, Biacore T200, 37 C
Description: as §1

human CTLA4 (huCTLA4) [6] = molecular target: T3, human CTLA4 (huCTLA4); assay: SPR, Biacore T200, 37 C; reference ipilimumab
Description: as §1

human CTLA4 (huCTLA4) [7] = molecular target: T3, human CTLA4 (huCTLA4); assay: SPR (Biacore), fit of the sensorgrams of FIG. 2A
Description: as §1

[8] = molecular target: T1, FcγRIIIa on Jurkat effector cells …; assay: cell-based or functional assay; remark: listed apart in the source
[9] = molecular target: T4, rhCTLA4-Fc (recombinant human CTLA4-Fc) (human, UniProt P16410 36-162, limits assumed); assay: SPR, channel Ch1
T4 construct: Used in SPR with the Fabs; not shown: Fc part; not described
Description: as §1

cynoCTLA4-Fc [10] = molecular target: T5, cynoCTLA4-Fc (cynomolgus, UniProt G7PL88 36-161); assay: SPR, channel Ch1
T5 construct: also called cynomolgus CTLA4-Fc
Description: as §1

[11] = molecular target: T4, rhCTLA4-Fc (recombinant human CTLA4-Fc); assay: SPR, channel Ch2
Description: as §1

cynoCTLA4-Fc [12] = molecular target: T5, cynoCTLA4-Fc; assay: SPR, channel Ch2
Description: as §1

[13] = molecular target: T4, rhCTLA4-Fc (recombinant human CTLA4-Fc); assay: SPR, channel Ch3
Description: as §1

cynoCTLA4-Fc [14] = molecular target: T5, cynoCTLA4-Fc; assay: SPR, channel Ch3
Description: as §1

[15] = molecular target: T4, rhCTLA4-Fc (recombinant human CTLA4-Fc); assay: SPR, average of three channels
Description: as §1

cynoCTLA4-Fc [16] = molecular target: T5, cynoCTLA4-Fc; assay: SPR, average of three channels
Description: as §1

T2 sequence (P16410 36-162 limits assumed): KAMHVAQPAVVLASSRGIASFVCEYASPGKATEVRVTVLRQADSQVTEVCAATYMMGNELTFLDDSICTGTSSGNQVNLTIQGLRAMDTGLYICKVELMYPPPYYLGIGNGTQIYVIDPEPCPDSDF
T4 sequence (P16410 36-162 limits assumed): as above
T5 sequence (G7PL88 entry or part of it limits assumed): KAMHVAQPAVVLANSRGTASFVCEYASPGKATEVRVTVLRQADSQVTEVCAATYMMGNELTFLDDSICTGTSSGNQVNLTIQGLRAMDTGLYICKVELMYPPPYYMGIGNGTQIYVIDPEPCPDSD
T3 sequence (P16410 36-161 limits assumed): as the sequence (G7PL88 entry or part of it limits assumed) above, with N14S, T18I, M106L counted along it
T1 sequence (P08637 whole entry): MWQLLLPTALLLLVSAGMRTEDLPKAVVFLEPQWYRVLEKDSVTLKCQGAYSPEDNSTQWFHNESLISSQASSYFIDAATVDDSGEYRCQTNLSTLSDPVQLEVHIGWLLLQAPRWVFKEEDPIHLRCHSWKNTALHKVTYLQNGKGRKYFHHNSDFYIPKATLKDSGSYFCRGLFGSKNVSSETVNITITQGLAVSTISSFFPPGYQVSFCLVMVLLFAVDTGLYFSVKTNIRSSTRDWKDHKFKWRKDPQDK
Sequence of cynomolgus CTLA4 (cynoCTLA4) (G7PL88 entry or part of it limits assumed): as the sequence (G7PL88 entry or part of it limits assumed) above

B1: Antibody 1-1 (version of humanized anti-CTLA4 Antibody 1 having a wild-type Fc region) (antibody, V domains shown)
VH: QVQLQESGPGLVKPSETLSLTCSVTYHTITSGYDWTWIRKPPGKGMEWIGYISYSGNTNYNPSLKSRVTISRDTSKNQFFLKLSSVTAADTAVYYCASMMVPHYYVMDAWGQGTLVTVSSA
VL: DIVMTQTPLSLSVTPGQPASISCRSSQSLLNSDGNTYLYWYLQKPGQSPQLLIYLVSKLGSGVPNRFSGSGSGTDFTLKISRVEAEDVGVYYCVQGTHDPWTFGGGTKVEIKR
notes: VL 25 / VH 26 are inferred from the parallel a)/b) order of the embodiments and because 30/31 go with the CDRs of Antibody 2; Full antibody with wild-type Fc
EC50 of reporter activation (RLU), ADCC FcγRIIIa reporter bioassay with CTLA4 target cells [1]: 1050 pg/mL
EC50 [2]: 0.41 nM

B2: Antibody 1-2 (version of Antibody 1 having a S239D mutation and an I332E mutation in the Fc region) (antibody, V domains shown)
VH: B1 VH
VL: B1 VL
notes: Variable domains inferred as for Antibody 1-1; Full antibody with S239D and I332E in the Fc region
EC50 of reporter activation (RLU), ADCC FcγRIIIa reporter bioassay with CTLA4 target cells [1]: 327 pg/mL
EC50 [2]: 0.56 nM

B4: Antibody 2-1 (version of humanized anti-CTLA4 Antibody 2 having a wild-type Fc region) (antibody)
VH: not shown
VL: EIVLTQSPDFQSVTPKEKVTITCSANSALSYMYWYQQKPDQSPKLWVHGTSNLASGVPSRFSGSGSGTDFTLTINSLEAEDAATYYCHHWSNTQWTFGGGTKVEIKRTVAAPSVFIFPPSDEQLKSGTASVVCLLNNFYPREAKVQWKVDNALQSGNSQESVTEQDSKDSTYSLSSTLTLSKADYEKHKVYACEVTHQGLSSPVTKSFNRGEC
notes: Full antibody with wild-type Fc; copies: 2 + 2
EC50 [2]: 0.33 nM

Results, then the binder that gave them:

EC50 of reporter activation (RLU), ADCC FcγRIIIa reporter bioassay with CTLA4 target cells [1]: 163 pg/mL
EC50 of reporter activation (RLU), ADCC FcγRIIIa reporter bioassay with CTLA4 target cells [3]: 163 pg/mL
EC50 [2]: 0.41 nM
B3: Antibody 1-aFuc (afucosylated version of Antibody 1) (antibody, V domains shown)
VH: B1 VH
VL: B1 VL
modifications: afucosylated Fc glycan
notes: Variable domains inferred as for Antibody 1-1; Afucosylated full antibody

Kd (human CTLA4 (huCTLA4) [4]): 0.091 nM
Kd [5]: 0.131 nM
fold greater binding affinity than ipilimumab (by KD) (human CTLA4 (huCTLA4) [6]): ~18 fold
koff (human CTLA4 (huCTLA4) [7]): 3.33e-05 s⁻¹
kon (human CTLA4 (huCTLA4) [7]): 366000 M⁻¹ s⁻¹
B5: Antibody 2-6 (a version of Antibody 2 having a S239D mutation, an I332E mutation in the Fc region) (antibody)
VH: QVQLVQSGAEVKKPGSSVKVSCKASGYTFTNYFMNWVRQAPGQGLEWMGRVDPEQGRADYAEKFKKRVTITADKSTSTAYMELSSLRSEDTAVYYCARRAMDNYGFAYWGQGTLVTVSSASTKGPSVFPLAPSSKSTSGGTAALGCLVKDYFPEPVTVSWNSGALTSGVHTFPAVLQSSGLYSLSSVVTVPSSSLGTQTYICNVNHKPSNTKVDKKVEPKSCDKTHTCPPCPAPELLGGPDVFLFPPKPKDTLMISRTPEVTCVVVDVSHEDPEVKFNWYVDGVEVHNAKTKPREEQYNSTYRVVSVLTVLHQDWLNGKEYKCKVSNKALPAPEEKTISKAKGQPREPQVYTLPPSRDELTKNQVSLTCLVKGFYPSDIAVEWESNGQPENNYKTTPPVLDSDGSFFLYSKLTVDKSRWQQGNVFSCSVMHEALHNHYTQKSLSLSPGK
VL: B4 VL
notes: copies: 2 + 2

EC50 of reporter activation (RLU), ADCC FcγRIIIa reporter bioassay with CTLA4 target cells [8]: 17.7 pg/mL
EC50 of reporter activation (RLU), ADCC FcγRIIIa reporter bioassay with CTLA4 target cells [3]: 17.7 pg/mL
EC50 [2]: 0.36 nM
B6: Antibody 2-aFuc (afucosylated version of Antibody 2) (antibody, V domains shown)
VH: QVQLVQSGAEVKKPGSSVKVSCKASGYTFTNYFMNWVRQAPGQGLEWMGRVDPEQGRADYAEKFKKRVTITADKSTSTAYMELSSLRSEDTAVYYCARRAMDNYGFAYWGQGTLVTVSSA
VL: EIVLTQSPDFQSVTPKEKVTITCSANSALSYMYWYQQKPDQSPKLWVHGTSNLASGVPSRFSGSGSGTDFTLTINSLEAEDAATYYCHHWSNTQWTFGGGTKVEIKR
modifications: afucosylated Fc glycan
notes: Afucosylated full antibody

Kd [9]: 4.53 pM
koff [9]: 1.63e-06 s⁻¹
kon [9]: 361000 M⁻¹ s⁻¹
Kd (cynoCTLA4-Fc [10]): 0.623 nM
koff (cynoCTLA4-Fc [10]): 0.000226 s⁻¹
kon (cynoCTLA4-Fc [10]): 363000 M⁻¹ s⁻¹
Kd [11]: 1.51 pM
koff [11]: 5.19e-07 s⁻¹
kon [11]: 345000 M⁻¹ s⁻¹
Kd (cynoCTLA4-Fc [12]): 0.794 nM
koff (cynoCTLA4-Fc [12]): 0.000229 s⁻¹
kon (cynoCTLA4-Fc [12]): 289000 M⁻¹ s⁻¹
Kd [13]: 5.55 pM
koff [13]: 1.84e-06 s⁻¹
kon [13]: 331000 M⁻¹ s⁻¹
Kd (cynoCTLA4-Fc [14]): 0.92 nM
koff (cynoCTLA4-Fc [14]): 0.000234 s⁻¹
kon (cynoCTLA4-Fc [14]): 254000 M⁻¹ s⁻¹
Kd [15]: 3.86 pM
Kd (cynoCTLA4-Fc [16]): 0.779 nM
B7: Antibody 2-Fab (a Fab of Antibody 2) (Fab, V domains shown)
VH: QVQLVQSGAEVKKPGSSVKVSCKASGYTFTNYFMNWVRQAPGQGLEWMGRVDPEQGRADYAEKFKKRVTITADKSTSTAYMELSSLRSEDTAVYYCARRAMDNYGFAYWGQGTLVTVSS
VL: B6 VL
notes: Fab
